Patent publication US20140179896A1 (published 2014)
Numbering of substitutions follows the chain as printed.

B1: A3 (designed binder)
chain: EVVAATPTSLLISWRHPHFPTRYYRITYGETGGNSPVQEFTVPLQPPTATISGLKPGVDYTITGYAVTDGWNGKMLSVPISINYRT
notes: 10Fn3 clone, Del 1-8
B2: 4′C5 PR4 (designed binder)
chain: B1 chain with D69L, W71L, G73D, K74H, M75E, S77I, V78T
notes: Del 1-8
B3: 4′B8 PR4 (designed binder)
chain: B1 chain with D69V, G70A, W71Q, G73D, K74H, M75K, S77F, V78I
notes: Del 1-8
B4: A12 (designed binder)
chain: B1 chain with D69V, G70E, K74R, M75V, S77M, V78T
notes: 10Fn3 clone, Del 1-8
B5: G1 (designed binder)
chain: B1 chain with D69E, W71R, K74R, M75E, S77M
notes: 10Fn3 clone, Del 1-8
B6: 3′H3 PR4 (designed binder)
chain: B1 chain with D69L, W71L, G73D, K74R, M75E, S77M, V78T
notes: Del 1-8
B7: A11 (designed binder)
chain: B1 chain with D69L, G70E, G73N, K74R, M75V, S77M, V78T
notes: 10Fn3 clone, Del 1-8
B8: 3′G2 PR4 (designed binder)
chain: B1 chain with D69L, G70A, W71Q, K74H, M75E, S77I, V78T
notes: Del 1-8
B9: A7 (designed binder)
chain: B1 chain with W71P, G73N, K74R, M75E, S77I
notes: 10Fn3 clone, Del 1-8
B10: 3′H8 PR4 (designed binder)
chain: B1 chain with D69V, W71H, G73D, K74R, M75E, S77I, V78T
notes: Del 1-8
B11: 3′G3 PR4 (designed binder)
chain: B1 chain with D69F, G70D, W71Q, N72S, G73D, K74H, M75E, S77L, V78T
notes: Del 1-8
B12: 4′B11 PR4 (designed binder)
chain: B1 chain with D69M, G70A, W71H, G73D, K74H, M75E, S77L, V78T
notes: Del 1-8
B13: 3′H1 PR4 (designed binder)
chain: B1 chain with D69F, G70A, W71Q, G73D, K74H, M75Q, S77F, V78T
notes: Del 1-8
B14: 4C9 PR3 (designed binder)
chain: B1 chain with D69L, G70A, W71Q, G73D, K74H, M75E, S77L, V78T
notes: Del 1-8
B15: F12 (designed binder)
chain: B1 chain with W71R, K74H, M75E, S77M, V78T
notes: 10Fn3 clone, Del 1-8
B16: 4′G12 PR4 (designed binder)
chain: B1 chain with D69V, G70A, G73D, K74H, M75E, L76I, S77Y, V78T
notes: Del 1-8
B17: 3′H9 PR4 (designed binder)
chain: B1 chain with D69H, W71P, N72Y, G73D, K74Q, M75V, S77L, V78T
notes: Del 1-8
B18: 3′G7 PR4 (designed binder)
chain: B1 chain with D69E, W71Q, G73D, K74Q, M75L, S77F, V78I
notes: Del 1-8
B19: 4′D8 PR4 (designed binder)
chain: B1 chain with D69L, G70A, W71Q, K74H, M75E, S77Y, V78T
notes: Del 1-8
B20: 4′B3 PR4 (designed binder)
chain: B1 chain with D69M, G70A, W71Q, G73N, K74R, M75E, S77L, V78T
notes: Del 1-8
B21: A9 (designed binder)
chain: B1 chain with D69E, G73D, K74R, M75E, S77F
notes: 10Fn3 clone, Del 1-8
B22: 4′E7 PR4 (designed binder)
chain: B1 chain with D69W, G70A, W71Q, G73D, K74H, M75E, S77L, V78T
notes: Del 1-8
B23: 4′G4 PR4 (designed binder)
chain: B1 chain with D69V, G70A, W71Q, G73D, K74R, M75E, S77L, V78T
notes: Del 1-8
B24: 4F4 PR3 (designed binder)
chain: B1 chain with D69L, G70A, W71Q, G73D, K74R, M75E, S77I, V78T
notes: Del 1-8
B25: B4 (designed binder)
chain: B1 chain with D69N, G70E, W71R, K74R, M75E, S77M, V78T
notes: 10Fn3 clone, Del 1-8
B26: 4′D6 PR4 (designed binder)
chain: B1 chain with D69M, G70A, W71Q, G73D, K74H, M75E, S77M, V78T
notes: Del 1-8
B27: 3′G1 PR4 (designed binder)
chain: B1 chain with D69L, G70A, W71L, K74H, M75E, S77F, V78T
notes: Del 1-8
B28: 4′A5 PR4 (designed binder)
chain: B1 chain with D69L, G70A, W71Q, G73D, K74H, M75E, S77L, V78T
notes: Del 1-8
B29: 4B11 PR3 (designed binder)
chain: B1 chain with D69V, W71Q, G73N, K74H, M75E, S77I, V78T
notes: Del 1-8
B30: B3 (designed binder)
chain: B1 chain with D69M, G70E, W71R, K74R, M75E, S77M, V78T
notes: 10Fn3 clone, Del 1-8
B31: 4′H5 PR4 (designed binder)
chain: B1 chain with D69L, G70A, W71Q, K74H, M75E, S77F, V78T
notes: Del 1-8
B32: 3′H11 PR4 (designed binder)
chain: B1 chain with D69L, G70A, W71H, K74N, M75E, S77L, V78T
notes: Del 1-8
B33: 4H5 PR3 (designed binder)
chain: B1 chain with D69V, G70A, W71Q, K74H, M75E, S77I, V78T
notes: Del 1-8
B34: 3′F12 PR4 (designed binder)
chain: B1 chain with D69L, G70S, W71Q, N72T, G73D, K74H, M75E, S77L, V78T
notes: Del 1-8
B35: A4 (designed binder)
chain: B1 chain with W71Y, G73D, K74R, M75L, S77F, V78I
notes: 10Fn3 clone, Del 1-8
B36: 3′G10 PR4 (designed binder)
chain: B1 chain with D69L, G70T, W71H, G73D, K74H, M75E, S77L, V78T
notes: Del 1-8
B37: 3′H10 PR4 (designed binder)
chain: B1 chain with D69W, G70A, G73D, K74H, M75E, S77M, V78T
notes: Del 1-8
B38: A10 (designed binder)
chain: B1 chain with D69F, K74R, M75E, S77L, V78T
notes: 10Fn3 clone, Del 1-8
B39: B11 (designed binder)
chain: B1 chain with D69V, G70E, W71R, K74R, M75E, S77K, V78T
notes: 10Fn3 clone, Del 1-8
B40: 4′H7 PR4 (designed binder)
chain: B1 chain with D69L, G70A, W71H, G73D, K74H, M75E, S77L, V78T
notes: Del 1-8
B41: 4′H12 PR4 (designed binder)
chain: B1 chain with D69V, G70A, W71H, G73D, K74H, M75E, S77L, V78T
notes: Del 1-8
B42: A8 (designed binder)
chain: B1 chain with W71L, M75Y, S77F
notes: 10Fn3 clone, Del 1-8
B43: 4′C9 PR4 (designed binder)
chain: B1 chain with D69L, W71P, G73D, K74H, M75E, S77M, V78T
notes: Del 1-8
B44: 4′B7 PR4 (designed binder)
chain: B1 chain with D69V, G70A, W71Q, G73N, K74H, M75E, S77L, V78T
notes: Del 1-8
B45: 2′E4-PR4 (designed binder)
chain: VSDVPRDLEVVAATPTSLLISWRHPHFPTRYYRITYGETGGNSPVQEFTVPLQPPTATISGLKPGVDYTITGYAVTVHWNGHELMTPISINYRT
notes: WT N-terminus
B46: 2′H4-PR4 (designed binder)
chain: B45 chain with H78G, W79P, G81E, H82R, E83M
notes: WT N-terminus
B47: 2′D6-PR4 (designed binder)
chain: B45 chain with H78T, W79H, E83P
notes: WT N-terminus
B48: 2′C6-PR4 (designed binder)
chain: B45 chain with V77M, H78G, W79F, N80M, G81A, T86V
notes: WT N-terminus

Tests used:
[1] = target: T1, human vascular endothelial growth factor receptor-2 Fc chimera (KDR-Fc) (human, UniProt P35968 20-764); test: radioactive equilibrium binding assay, 1 nM KDR-Fc, % of input bound
T1 construct: range 1-764; also called human VEGFR-2; not shown: human IgG1 Fc
Method: (§1) To prepare ³⁵S-labeled binding proteins for analysis, mRNA was prepared as described above for RNA-protein fusion production but the linker ligation step was omitted. The mRNA was expressed using rabbit reticulocyte lysate translation kit (Ambion) in the presence of ³⁵S-labeled Met at 30° C. for 1 hour. Expressed protein was purified on M2-agarose Flag beads (Sigma) as described above. This procedure produced the encoded protein without the nucleic acid tail. In a direct binding assay, VEGF-R2-Fc fusions in concentrations ranging from 0 to 200 nM were added to a constant concentration of the purified protein (0.2 or 0.5 nM) and incubated at 30° C. for 1 hour in buffer B. The receptor-binder complexes were captured using Protein A magnetic beads for another 10 minutes at room temperature using a Kingfisher™ The beads were washed with six reaction volumes of buffer B. The protein was eluted from the beads with 100 μL of 0.1 M KOH. […] of the reaction mixture and elution were dried onto a LumaPlate-96 (Packard) and the amount of ³⁵S on the plate was measured using a TopCount NXT instrument (Packard). The amount of fibronectin-based scaffold protein bound to the target was estimated as a percent of radioactivity eluted from Protein A magnetic beads compare to radioactivity in the reaction mixture. Nonspecific binding of fibronectin-based scaffold proteins to the beads was determined by measuring binding in the absence of KDR-Fc and represented less than 1-2% of the input. Specific binding was obtained through subtraction of nonspecific binding from total binding. Data was analyzed using the GraphPad Prizm software (GraphPad Software, Inc, San Diego, Calif.), fitted using a one site, non-linear binding equation.
T1 sequence (P35968 20-764 limits assumed, change not shown, form in doubt): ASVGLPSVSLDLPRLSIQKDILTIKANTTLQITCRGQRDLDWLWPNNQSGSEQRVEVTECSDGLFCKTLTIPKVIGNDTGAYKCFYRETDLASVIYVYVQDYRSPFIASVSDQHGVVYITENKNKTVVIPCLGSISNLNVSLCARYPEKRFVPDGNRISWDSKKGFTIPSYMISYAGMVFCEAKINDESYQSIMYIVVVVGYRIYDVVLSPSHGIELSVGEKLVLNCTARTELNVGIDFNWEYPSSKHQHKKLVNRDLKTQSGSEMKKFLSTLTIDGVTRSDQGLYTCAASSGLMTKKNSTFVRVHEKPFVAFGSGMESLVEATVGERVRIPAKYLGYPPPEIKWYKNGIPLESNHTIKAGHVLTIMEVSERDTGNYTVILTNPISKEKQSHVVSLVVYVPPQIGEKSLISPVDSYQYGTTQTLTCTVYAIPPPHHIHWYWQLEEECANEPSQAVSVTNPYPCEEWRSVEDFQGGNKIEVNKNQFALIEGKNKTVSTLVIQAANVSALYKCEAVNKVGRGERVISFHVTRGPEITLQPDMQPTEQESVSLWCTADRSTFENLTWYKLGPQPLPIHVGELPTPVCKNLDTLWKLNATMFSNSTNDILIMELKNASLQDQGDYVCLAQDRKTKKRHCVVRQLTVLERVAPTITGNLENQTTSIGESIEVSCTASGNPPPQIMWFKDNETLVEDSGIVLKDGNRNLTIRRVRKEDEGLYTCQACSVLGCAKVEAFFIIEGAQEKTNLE

[2] = target: T2, mouse vascular endothelial growth factor receptor-2 Fc chimera (Flk-1-Fc) (mouse, UniProt P35918 20-762); test: radioactive equilibrium binding assay, 1 nM Flk-1-Fc, % of input bound
T2 construct: Bought from R&D Systems; also called mouse VEGFR-2; not shown: Fc part of the purchased chimera, not specified
Method: as §1

[3] = target: T3, human vascular endothelial growth factor receptor-2 Fc chimera (KDR-Fc) (human, UniProt P35968 20-764); test: radioactive equilibrium binding, 1 nM KDR-Fc
T3 construct: range 1-764; also called human VEGFR-2; VEGF-R2-Fc; not shown: human IgG1 Fc
Method: as §1
T3 sequence (P35968 20-764 limits assumed, change not shown, form in doubt): as above

T2 sequence (P35918 20-762, change not shown): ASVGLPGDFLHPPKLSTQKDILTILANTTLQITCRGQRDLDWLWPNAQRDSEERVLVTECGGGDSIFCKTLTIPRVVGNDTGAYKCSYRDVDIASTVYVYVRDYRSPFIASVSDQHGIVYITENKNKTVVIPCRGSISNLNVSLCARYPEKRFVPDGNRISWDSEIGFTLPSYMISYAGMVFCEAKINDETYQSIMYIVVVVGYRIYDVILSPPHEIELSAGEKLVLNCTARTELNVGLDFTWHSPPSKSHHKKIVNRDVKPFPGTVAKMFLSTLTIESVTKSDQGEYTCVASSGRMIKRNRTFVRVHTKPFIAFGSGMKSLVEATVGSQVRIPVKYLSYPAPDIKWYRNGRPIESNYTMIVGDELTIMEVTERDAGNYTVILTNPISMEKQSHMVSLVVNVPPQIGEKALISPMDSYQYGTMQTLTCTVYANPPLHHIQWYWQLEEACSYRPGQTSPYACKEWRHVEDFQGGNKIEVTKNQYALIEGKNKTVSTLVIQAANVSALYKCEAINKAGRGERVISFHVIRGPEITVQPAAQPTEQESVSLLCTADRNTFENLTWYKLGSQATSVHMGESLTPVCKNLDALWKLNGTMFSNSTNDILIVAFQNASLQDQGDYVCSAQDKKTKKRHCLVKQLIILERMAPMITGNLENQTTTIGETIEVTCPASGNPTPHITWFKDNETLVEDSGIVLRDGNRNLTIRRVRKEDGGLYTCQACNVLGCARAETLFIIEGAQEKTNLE

Binder | Binding to 1 nM KDR, % [1] [%] | Binding to 1 nM Flk-1, % [2] [%] | Binding to 1 nM KDR, % [3] [%]
B1 | 33 | 7 | –
B2 | – | – | 27
B3 | – | – | 20
B4 | 40 | 10 | –
B5 | 22 | – | –
B6 | – | – | 36
B7 | 26 | 6 | –
B8 | – | – | 15
B9 | 18 | 2 | –
B10 | – | – | 20
B11 | – | – | 31
B12 | – | – | 25
B13 | – | – | 22
B14 | – | – | 16
B15 | 17 | – | –
B16 | – | – | 21
B17 | – | – | 24
B18 | – | – | 19
B19 | – | – | 26
B20 | – | – | 42
B21 | 31 | 4 | –
B22 | – | – | 17
B23 | – | – | 19
B24 | – | – | 15

Binder | Binding to 1 nM KDR, % [1] [%] | Binding to 1 nM Flk-1, % [2] [%] | Binding to 1 nM KDR, % [3] [%]
B25 | 19 | 12 | –
B26 | – | – | 14
B27 | – | – | 19
B28 | – | – | 16
B29 | – | – | 15
B30 | 33 | 27 | –
B31 | – | – | 18
B32 | – | – | 39
B33 | – | – | 14
B34 | – | – | 17
B35 | 46 | 2 | –
B36 | – | – | 30
B37 | – | – | 14
B38 | 34 | 4 | –
B39 | 29 | – | –
B40 | – | – | 29
B41 | – | – | 17
B42 | 38 | 4 | –
B43 | – | – | 29
B44 | – | – | 16
B45 | – | – | 22
B46 | – | – | 17
B47 | – | – | 22
B48 | – | – | 16
